target: 6X-His-PTPROt-CS/DA; assay: pull-down

Row | percent reduction of binding against WT VCP [%] | Substance
1 | 50 | HA-tagged VCP Y796F (from UniProt P55072 1-806) (natural protein)
2 | > 90 | HA-tagged VCP Y796F/Y805F (from UniProt P55072 1-806) (natural protein)
3 | > 90 | HA-tagged VCP Y805F (from UniProt P55072 1-806) (natural protein)

Source: paper PMC4199230
